Among the data in US11360100B2, “Methods and compositions useful in detecting proteins” (OREGON HEALTH & SCIENCE UNIVERSITY, priority 2016, dated 2022) are cell membrane permeance values, retold here.

This data set can be described thus: Membrane permeance of probe peptides in living cells. Format: cell-based. As for the experimental part: The disclosed tag sets preferentially label cell surfaces and are membrane impermeant in living cells, which is of particular use in labeling cell-surface receptors (i.e., TfR1 and EGFR) and more particularly of use in monitoring trafficking and endocytosis.
The disclosed methods were tested in transfected human osteosarcoma cells (U-2 OS). A pDisplay vector was used to target CoilZ-EGFP and untagged EGFP to the cell surface. This construct includes a C-terminal fusion to the transmembrane domain of the platelet derived growth factor receptor. As expected, both CoilZ-EGFP and untagged EGFP localized to the cell surface, and green fluorescence was observed within 24 h of transfection. Then the cells were blocked with 6% BSA and 10% FBS for 30 minutes at 37° C. and then contacted with an AF647-conjugated CoilY probe (CoilY-AF647), 30 min at 4° C. Cells were fixed before imaging by confocal fluorescence microscopy. The probe peptides are membrane impermeant; only cell-surface EGFP was accessible to CoilY-AF647 for labeling. Colocalization of green fluorescent CoilZ-EGFP with CoilY-AF647 was observed.
VIP probe peptides are live cell impermeant. This makes them ideal for imaging and tracking receptor internalization. […]
VIPER labeling was compared to that of standard fluorescence labeling techniques, namely a fluorescent protein fusion to mCherry and antibody labeling.

“CoilR: coiled-coil peptide, SEQ ID NO: 1, designed from RR12EE345L (LEIRAAFLRQRNTALRTEVAELEQEVQRLENEVSQYETRYGPL)”: the cell membrane permeance result is listed as “cell-membrane impermeance”.
